B1: KRT85_HUMAN (protein, UniProt P78386 1-507, looked up)
Keratin, type II cuticular Hb5: MSCRSYRISSGCGVTRNFSSCSAVAPKTGNRCCISAAPYRGVSCYRGLTGFGSRSLCNLGSCGPRIAVGGFRAGSCGRSFGYRSGGVCGPSPPCITTVSVNESLLTPLNLEIDPNAQCVKQEEKEQIKSLNSRFAAFIDKVRFLEQQNKLLETKWQFYQNQRCCESNLEPLFSGYIETLRREAECVEADSGRLASELNHVQEVLEGYKKKYEEEVALRATAENEFVVLKKDVDCAYLRKSDLEANVEALVEESSFLRRLYEEEIRVLQAHISDTSVIVKMDNSRDLNMDCIIAEIKAQYDDVASRSRAEAESWYRSKCEEMKATVIRHGETLRRTKEEINELNRMIQRLTAEIENAKCQRAKLEAAVAEAEQQGEAALSDARCKLAELEGALQKAKQDMACLLKEYQEVMNSKLGLDIEIATYRRLLEGEEHRLCEGVGSVNVCVSSSRGGVSCGGLSYSTTPGRQITSGPSAIGGSITVVAPDSCAPCQPRSSSFSCGSSRSVRFA
B2: AMOT_HUMAN (protein, UniProt Q4VCS5 1-1084, looked up)
Angiomotin: MRNSEEQPSGGTTVLQRLLQEQLRYGNPSENRSLLAIHQQATGNGPPFPSGSGNPGPQSDVLSPQDHHQQLVAHAARQEPQGQEIQSENLIMEKQLSPRMQNNEELPTYEEAKVQSQYFRGQQHASVGAAFYVTGVTNQKMRTEGRPSVQRLNPGKMHQDEGLRDLKQGHVRSLSERLMQMSLATSGVKAHPPVTSAPLSPPQPNDLYKNPTSSSEFYKAQGPLPNQHSLKGMEHRGPPPEYPFKGMPPQSVVCKPQEPGHFYSEHRLNQPGRTEGQLMRYQHPPEYGAARPAQDISLPLSARNSQPHSPTSSLTSGGSLPLLQSPPSTRLSPARHPLVPNQGDHSAHLPRPQQHFLPNQAHQGDHYRLSQPGLSQQQQQQQQQHHHHHHHQQQQQQQPQQQPGEAYSAMPRAQPSSASYQPVPADPFAIVSRAQQMVEILSDENRNLRQELEGCYEKVARLQKVETEIQRVSEAYENLVKSSSKREALEKAMRNKLEGEIRRMHDFNRDLRERLETANKQLAEKEYEGSEDTRKTISQLFAKNKESQREKEKLEAELATARSTNEDQRRHIEIRDQALSNAQAKVVKLEEELKKKQVYVDKVEKMQQALVQLQAACEKREQLEHRLRTRLERELESLRIQQRQGNCQPTNVSEYNAAALMELLREKEERILALEADMTKWEQKYLEENVMRHFALDAAATVAAQRDTTVISHSPNTSYDTALEARIQKEEEEILMANKRCLDMEGRIKTLHAQIIEKDAMIKVLQQRSRKEPSKTEQLSCMRPAKSLMSISNAGSGLLSHSSTLTGSPIMEEKRDDKSWKGSLGILLGGDYRAEYVPSTPSPVPPSTPLLSAHSKTGSRDCSTQTERGTESNKTAAVAPISVPAPVAAAATAAAITATAATITTTMVAAAPVAVAAAAAPAAAAAPSPATAAATAAAVSPAAAGQIPAAASVASAAAVAPSAAAAAAVQVAPAAPAPVPAPALVPVPAPAAAQASAPAQTQAPTSAPAVAPTPAPTPTPAVAQAEVPASPATGPGPHRLSIPSLTCNPDKTDGPVFHSNTLERKTPIQILGQEPDAEMVEYLI
B3: RBM33_HUMAN (protein, UniProt Q96EV2 2-1170, looked up)
RNA-binding protein 33: AAALGASGGAGAGDDDFDQFDKPGAERSWRRRAADEDWDSELEDDLLGEDLLSGKKNQSDLSDEELNDDLLQSDNEDEENFSSQGVTISLNATSGMVTSFELSDNTNDQSGEQESEYEQEQGEDELVYHKSDGSELYTQEYPEEGQYEGHEAELTEDQIEYVEEPEEEQLYTDEVLDIEINEPLDEFTGGMETLELQKDIKEESDEEEEDDEESGRLRFKTERKEGTIIRLSDVTRERRNIPETLELSAEAKAALLEFEERERQHKQGRYSSRRGGRRGGPLMCRGVGDQRRESTERGRMKDHRPALLPTQPPVVPQAPPPPPPPPQQQPIRSLFQPQPLQPLLPVQHPHHPSPPQGMHMPPQLETPRMMMTPPPVTPQQPKNIHINPHFKGTVVTPVQVPLLPVPSQPRPAVGPQRFPGPPEFPQHTPGPVPNSFSQPPRLPLQDQWRAPPPPQDRDPFFLGVSGEPRFPSHLFLEQRSPPPPPPPPTLLNSSHPVPTQSPLPFTQPGPAFNQQGQQPVFPRERPVRPALQPPGPVGILHFSQPGSATTRPFIPPRQPFLPGPGQPFLPTHTQPNLQGPLHPPLPPPHQPQPQQPQQQPPPQHQPPHQPPHQPPPQHQPPPQHPPQHPPQHQHHHHHHHLSVPPPPLMPMSQPQFRPHVQTAQPQASSSRMQCPQRQGLRHNTTSQNVSKRPMQQMQPTAPRNSNLRELPIAPSHVIEMSSSRCSATPSAQVKPIVSASPPSRAVAGSRSSQGKTEVKVKPASPVAQPKEEAKTETEFPDEDEETRLYRLKIEEQKRLREEILKQKELRRQQQAGARKKELLERLAQQQQQLYAPPPPAEQEEQALSPSPTNGNPLLPFPGAQVRQNVKNRLLVKNQDVSISNVQPKTSNFVPSSANMQYQGQQMKALKHLRQTRTVPQSQTQPLHKVLPIKPADVEEPAVPQTPRVASIQGRPQDTKPGVKRTVTHRTNSGGGDGPHISSKVRVIKLSGGGGESDGFFHPEGQPQRLPQPPEVGPQPARKVTLTRGGLQQPPHLPAGPHAHSPVPPGIKSIQGIHPAKKAIMHGRGRGVAGPMGRGRLMPNKQNLRVVECKPQPCVVSVEGLSSSTTDAQLKSLLMSVGPIQSLQMLPQQRKAIAKFKEPAHALAFQQKFHRHMIDLSHINVALIVE
B4: ATX2L_HUMAN (protein, UniProt Q8WWM7 1-1075, looked up)
Ataxin-2-like protein: MLKPQPLQQPSQPQQPPPTQQAVARRPPGGTSPPNGGLPGPLATSAAPPGPPAAASPCLGPVAAAGSGLRRGAEGILAPQPPPPQQHQERPGAAAIGSARGQSTGKGPPQSPVFEGVYNNSRMLHFLTAVVGSTCDVKVKNGTTYEGIFKTLSSKFELAVDAVHRKASEPAGGPRREDIVDTMVFKPSDVMLVHFRNVDFNYATKDKFTDSAIAMNSKVNGEHKEKVLQRWEGGDSNSDDYDLESDMSNGWDPNEMFKFNEENYGVKTTYDSSLSSYTVPLEKDNSEEFRQRELRAAQLAREIESSPQYRLRIAMENDDGRTEEEKHSAVQRQGSGRESPSLASREGKYIPLPQRVREGPRGGVRCSSSRGGRPGLSSLPPRGPHHLDNSSPGPGSEARGINGGPSRMSPKAQRPLRGAKTLSSPSNRPSGETSVPPPPAVGRMYPPRSPKSAAPAPISASCPEPPIGSAVPTSSASIPVTSSVSDPGVGSISPASPKISLAPTDVKELSTKEPGRTLEPQELARIAGKVPGLQNEQKRFQLEELRKFGAQFKLQPSSSPENSLDPFPPRILKEEPKGKEKEVDGLLTSEPMGSPVSSKTESVSDKEDKPPLAPSGGTEGPEQPPPPCPSQTGSPPVGLIKGEDKDEGPVAEQVKKSTLNPNAKEFNPTKPLLSVNKSTSTPTSPGPRTHSTPSIPVLTAGQSGLYSPQYISYIPQIHMGPAVQAPQMYPYPVSNSVPGQQGKYRGAKGSLPPQRSDQHQPASAPPMMQAAAAAGPPLVAATPYSSYIPYNPQQFPGQPAMMQPMAHYPSQPVFAPMLQSNPRMLTSGSHPQAIVSSSTPQYPSAEQPTPQALYATVHQSYPHHATQLHAHQPQPATTPTGSQPQSQHAAPSPVQHQAGQAPHLGSGQPQQNLYHPGALTGTPPSLPPGPSAQSPQSSFPQPAAVYAIHHQQLPHGFTNMAHVTQAHVQTGITAAPPPHPGAPHPPQVMLLHPPQSHGGPPQGAVPQSGVPALSASTPSPYPYIGHPQGEQPGQAPGFPGGADDRIREFSLAGGIWHGRAEGLQVGQDARVLGGE
B5: NCKP1_HUMAN (protein, UniProt Q9Y2A7 2-1128, looked up)
Nck-associated protein 1: SRSVLQPSQQKLAEKLTILNDRGVGMLTRLYNIKKACGDPKAKPSYLIDKNLESAVKFIVRKFPAVETRNNNQQLAQLQKEKSEILKNLALYYFTFVDVMEFKDHVCELLNTIDVCQVFFDITVNFDLTKNYLDLIITYTTLMILLSRIEERKAIIGLYNYAHEMTHGASDREYPRLGQMIVDYENPLKKMMEEFVPHSKSLSDALISLQMVYPRRNLSADQWRNAQLLSLISAPSTMLNPAQSDTMPCEYLSLDAMEKWIIFGFILCHGILNTDATALNLWKLALQSSSCLSLFRDEVFHIHKAAEDLFVNIRGYNKRINDIRECKEAAVSHAGSMHRERRKFLRSALKELATVLSDQPGLLGPKALFVFMALSFARDEIIWLLRHADNMPKKSADDFIDKHIAELIFYMEELRAHVRKYGPVMQRYYVQYLSGFDAVVLNELVQNLSVCPEDESIIMSSFVNTMTSLSVKQVEDGEVFDFRGMRLDWFRLQAYTSVSKASLGLADHRELGKMMNTIIFHTKMVDSLVEMLVETSDLSIFCFYSRAFEKMFQQCLELPSQSRYSIAFPLLCTHFMSCTHELCPEERHHIGDRSLSLCNMFLDEMAKQARNLITDICTEQCTLSDQLLPKHCAKTISQAVNKKSKKQTGKKGEPEREKPGVESMRKNRLVVTNLDKLHTALSELCFSINYVPNMVVWEHTFTPREYLTSHLEIRFTKSIVGMTMYNQATQEIAKPSELLTSVRAYMTVLQSIENYVQIDITRVFNNVLLQQTQHLDSHGEPTITSLYTNWYLETLLRQVSNGHIAYFPAMKAFVNLPTENELTFNAEEYSDISEMRSLSELLGPYGMKFLSESLMWHISSQVAELKKLVVENVDVLTQMRTSFDKPDQMAALFKRLSSVDSVLKRMTIIGVILSFRSLAQEALRDVLSYHIPFLVSSIEDFKDHIPRETDMKVAMNVYELSSAAGLPCEIDPALVVALSSQKSENISPEEEYKIACLLMVFVAVSLPTLASNVMSQYSPAIEGHCNNIHCLAKAINQIAAALFTIHKGSIEDRLKEFLALASSSLLKIGQETDKTTTRNRESVYLLLDMIVQESPFLTMDLLESCFPYVLLRNAYHAVYKQSVTSSA

Tested on: KDM4A-I71AzF
Assay: CASI: photo-crosslinking with HEK293T cell extracts, StrepTactin enrichment and LC-MS/MS proteomics;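 also: lysates from HEK293T cells pretreated with a KDM4 inhibitor to raise proteome methylation, affinity-purified after ±UV, gel-resolved, trypsin-digested, with exclusive unique peptides per protein averaged per condition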
Type: binding, human
Conditions: sheet "Final results but with 0.01"

Molecule	Fold change (+UV/-UV)
B1	3
B2	1.125
B3	0.3333
B4	0
B5	0.6

Source: PMC10540216, “Activity Guided Azide-methyllysine Photo-trapping for Substrate Profiling of Lysine Demethylases” (Journal of the American Chemical Society, 2023)
